For this experiment, the target named is human IL-12 receptor on human CD14- PBMC (human, UniProt Q99665 24-862). The experiment in a line: cell-based or functional assay.
human IL-12 receptor on human CD14- PBMC, sequence (Q99665 24-862): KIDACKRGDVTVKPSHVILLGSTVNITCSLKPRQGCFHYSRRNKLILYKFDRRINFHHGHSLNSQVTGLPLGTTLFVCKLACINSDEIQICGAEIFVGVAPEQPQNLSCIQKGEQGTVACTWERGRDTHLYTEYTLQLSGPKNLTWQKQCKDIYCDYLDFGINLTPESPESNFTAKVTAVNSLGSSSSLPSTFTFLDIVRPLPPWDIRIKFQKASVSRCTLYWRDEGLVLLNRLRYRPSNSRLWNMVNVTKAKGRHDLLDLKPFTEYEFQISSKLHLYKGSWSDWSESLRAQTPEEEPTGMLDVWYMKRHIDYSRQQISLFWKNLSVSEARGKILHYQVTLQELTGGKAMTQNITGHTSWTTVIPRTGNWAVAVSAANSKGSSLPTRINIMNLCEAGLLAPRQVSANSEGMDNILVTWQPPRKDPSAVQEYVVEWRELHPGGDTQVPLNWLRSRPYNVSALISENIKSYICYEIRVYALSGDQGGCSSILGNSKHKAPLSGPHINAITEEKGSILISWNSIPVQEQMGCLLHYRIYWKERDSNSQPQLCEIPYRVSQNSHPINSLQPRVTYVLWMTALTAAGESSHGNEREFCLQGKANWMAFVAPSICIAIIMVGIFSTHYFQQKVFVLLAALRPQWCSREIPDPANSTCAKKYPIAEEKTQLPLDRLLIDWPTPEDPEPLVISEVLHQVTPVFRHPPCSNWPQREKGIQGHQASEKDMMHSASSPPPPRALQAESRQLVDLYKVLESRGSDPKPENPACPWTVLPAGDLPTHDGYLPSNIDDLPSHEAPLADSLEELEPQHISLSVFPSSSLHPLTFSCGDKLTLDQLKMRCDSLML

B1: recombinant human IL-12 (ligand)
chain 1: RNLPVATPDPGMFPCLHHSQNLLRAVSNMLQKARQTLEFYPCTSEEIDHEDITKDKTSTVEACLPLELTKNESCLNSRETSFITNGSCLASRKTSFMMALCLSSIYEDLKMYQVEFKTMNAKLLMDPKRQIFLDQNMLAVIDELMQALNFNSETVPQKSSLEEPDFYKTKIKLCILLHAFRIRAVTIDRVMSYLNAS
chain 2: IWELKKDVYVVELDWYPDAPGEMVVLTCDTPEEDGITWTLDQSSEVLGSGKTLTIQVKEFGDAGQYTCHKGGEVLSHSLLLLHKKEDGIWSTDILKDQKEPKNKTFLRCEAKNYSGRFTCWWLTTISTDLTFSVKSSRGSSDPQGVTCGAATLSAERVRGDNKEYEYSVECQEDSACPAAEESLPIEVMVDAVHKLKYENYTSSFFIRDIIKPDPPKNLQLKPLKNSRQVEVSWEYPDTWSTPHSYFSLTFCVQVQGKSKREKKDRVFTDKTSATVICRKNASISVRAQDRYYSSSWSEWASVPCS
Consider B1, for which the “EC50 for stimulating IFN-γ secretion from CD14- PBMC (ELISA, 16 hours)” value turned out to be 2.51 pM.

The values are drawn from patent US20130243722A1 (NEUMEDICINES, published 2013).
